Laboratory results from publication PMC5748844 (The Journal of Experimental Medicine, 2018).
Where two headings read alike, the source gives them in different places.

Experiments:
[1] = target: soluble RAGE (receptor for advanced glycation end products) (UniProt Q15109); assay: SPR
[2] = target: soluble RAGE (receptor for advanced glycation end products) (UniProt Q15109); assay: SPR; remark: listed apart in the source

Kd [1] [µM]	Kd [2] [µM]	Molecule
3.5		nonoxidizable HMGB1 mutant 3S (from UniProt P63159 1-215) (natural protein)
	3.5	fully reduced HMGB1 (High Mobility Group Box 1) (natural protein, all cysteines reduced) MGKGDPKKPRGKMSSYAFFVQTCREEHKKKHPDASVNFSEFSKKCSERWKTMSAKEKGKFEDMAKADKARYEREMKTYIPPKGETKKKFKDPNAPKRPPSAFFLFCSEYRPKIKGEHPGLSIGDVAKKLGEMWNNTAADDKQPYEKKAAKLKEKYEKDIAAYRAKGKPDAAKKGVVKAEKSKKKKEEEDDEEDEEDEEEEEEEEDEDEEEDDDDE
